{"source": "paper PMC4919518", "key": {"RsAgo K506A": {"molecular_target": "T1, RsAgo K506A (Rhodobacter sphaeroides (ATCC 17025D-5), UniProt A4WYU7 1-777, K506A)", "T1 sequence": "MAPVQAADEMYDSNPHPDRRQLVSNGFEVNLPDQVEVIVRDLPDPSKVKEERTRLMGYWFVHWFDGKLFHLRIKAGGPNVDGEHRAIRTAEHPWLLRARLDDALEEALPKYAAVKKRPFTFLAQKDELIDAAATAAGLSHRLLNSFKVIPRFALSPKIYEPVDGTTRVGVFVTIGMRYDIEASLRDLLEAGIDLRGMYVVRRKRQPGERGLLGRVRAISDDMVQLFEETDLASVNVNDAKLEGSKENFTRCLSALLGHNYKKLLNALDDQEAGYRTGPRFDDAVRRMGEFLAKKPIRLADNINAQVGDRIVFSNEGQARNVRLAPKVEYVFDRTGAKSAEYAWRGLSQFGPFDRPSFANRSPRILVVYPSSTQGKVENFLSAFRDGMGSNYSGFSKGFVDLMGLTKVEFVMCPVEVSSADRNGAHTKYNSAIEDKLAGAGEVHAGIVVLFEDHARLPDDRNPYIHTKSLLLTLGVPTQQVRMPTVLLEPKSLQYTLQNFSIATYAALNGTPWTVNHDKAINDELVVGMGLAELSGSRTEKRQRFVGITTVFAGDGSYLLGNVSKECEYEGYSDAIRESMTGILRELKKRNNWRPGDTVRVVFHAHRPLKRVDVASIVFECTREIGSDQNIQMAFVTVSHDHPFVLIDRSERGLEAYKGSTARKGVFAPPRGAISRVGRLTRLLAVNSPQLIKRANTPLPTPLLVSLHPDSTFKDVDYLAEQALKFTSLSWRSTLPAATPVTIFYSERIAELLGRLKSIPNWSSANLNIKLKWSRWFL", "assay": "fluorescence polarization; 5 mM Mg2+; FP: 20 mM HEPES-KOH pH 7.5, 200 mM NaCl, 5 mM MgCl2, 0.01 mg/ml E. coli total tRNA, 0.01% NP-40, 10 pM probe, 25 C; EMSA: 20 mM HEPES-KOH pH 7.5, 200 mM NaCl, 5"}, "RsAgo WT": {"molecular_target": "T2, RsAgo WT (Rhodobacter sphaeroides (ATCC 17025D-5), UniProt A4WYU7 1-777)", "T2 sequence": "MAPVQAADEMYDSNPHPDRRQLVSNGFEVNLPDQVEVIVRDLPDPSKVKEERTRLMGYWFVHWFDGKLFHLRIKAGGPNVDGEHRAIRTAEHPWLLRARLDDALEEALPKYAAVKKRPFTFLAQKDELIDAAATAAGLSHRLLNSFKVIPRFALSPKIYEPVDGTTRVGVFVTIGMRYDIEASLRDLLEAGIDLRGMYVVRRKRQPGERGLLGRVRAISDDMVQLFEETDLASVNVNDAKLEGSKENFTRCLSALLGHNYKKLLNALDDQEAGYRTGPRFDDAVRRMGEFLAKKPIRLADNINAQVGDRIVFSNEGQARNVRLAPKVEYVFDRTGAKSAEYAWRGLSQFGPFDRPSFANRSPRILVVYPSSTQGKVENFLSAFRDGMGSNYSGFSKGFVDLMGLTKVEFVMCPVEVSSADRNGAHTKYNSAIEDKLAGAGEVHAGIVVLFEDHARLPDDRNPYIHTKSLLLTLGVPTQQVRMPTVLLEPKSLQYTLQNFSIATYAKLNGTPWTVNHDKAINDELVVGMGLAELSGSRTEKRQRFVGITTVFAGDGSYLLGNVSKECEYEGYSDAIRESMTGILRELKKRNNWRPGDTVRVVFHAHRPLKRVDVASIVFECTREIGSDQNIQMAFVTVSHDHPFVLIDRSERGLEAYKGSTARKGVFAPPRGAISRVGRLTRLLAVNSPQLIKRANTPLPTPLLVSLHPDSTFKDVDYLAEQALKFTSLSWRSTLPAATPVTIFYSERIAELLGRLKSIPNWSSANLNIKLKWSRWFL", "assay": "fluorescence polarization; 5 mM Mg2+; FP: 20 mM HEPES-KOH pH 7.5, 200 mM NaCl, 5 mM MgCl2, 0.01 mg/ml E. coli total tRNA, 0.01% NP-40, 10 pM probe, 25 C; EMSA: 20 mM HEPES-KOH pH 7.5, 200 mM NaCl, 5"}, "RsAgo delP45-W63": {"molecular_target": "T3, RsAgo delP45-W63 (Rhodobacter sphaeroides (ATCC 17025D-5), UniProt A4WYU7 1-777, del45-63)", "T3 sequence": "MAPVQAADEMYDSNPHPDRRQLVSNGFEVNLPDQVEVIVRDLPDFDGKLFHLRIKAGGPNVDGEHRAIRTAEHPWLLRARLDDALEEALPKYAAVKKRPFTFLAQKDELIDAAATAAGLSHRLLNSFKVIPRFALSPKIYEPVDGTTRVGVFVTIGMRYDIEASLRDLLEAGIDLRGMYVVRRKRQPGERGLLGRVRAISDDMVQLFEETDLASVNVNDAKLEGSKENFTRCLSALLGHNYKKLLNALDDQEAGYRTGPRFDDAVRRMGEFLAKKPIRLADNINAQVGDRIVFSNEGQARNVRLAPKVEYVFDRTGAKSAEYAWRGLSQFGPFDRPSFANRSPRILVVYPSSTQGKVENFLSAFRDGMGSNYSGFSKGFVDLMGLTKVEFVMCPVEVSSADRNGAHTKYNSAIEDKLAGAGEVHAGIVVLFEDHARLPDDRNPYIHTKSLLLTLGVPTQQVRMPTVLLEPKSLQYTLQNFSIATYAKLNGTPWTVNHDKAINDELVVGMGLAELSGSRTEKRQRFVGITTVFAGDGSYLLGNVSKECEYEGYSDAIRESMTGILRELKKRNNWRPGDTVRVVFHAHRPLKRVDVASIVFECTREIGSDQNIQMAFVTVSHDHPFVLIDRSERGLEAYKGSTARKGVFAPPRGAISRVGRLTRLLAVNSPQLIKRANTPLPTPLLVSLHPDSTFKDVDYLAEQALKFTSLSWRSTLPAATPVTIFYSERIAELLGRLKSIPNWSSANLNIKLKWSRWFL", "assay": "fluorescence polarization; 5 mM Mg2+; same binding capacity as WT; FP: 20 mM HEPES-KOH pH 7.5, 200 mM NaCl, 5 mM MgCl2, 0.01 mg/ml E. coli total tRNA, 0.01% NP-40, 10 pM probe, 25 C; EMSA: 20 mM HEPES-KOH pH 7.5, 200 mM NaCl, 5"}}}
{"binder": "UUACAACCUACUACCUCG (ssRNA, 5'-phosphate)", "note": "[5'P-RNA (5'U-RNA), FAM]", "values": [{"measurement": "Kd", "setting": "RsAgo K506A", "value": "1030 ± 47", "unit": "nM"}, {"measurement": "Kd", "setting": "RsAgo WT", "value": "0.91 ± 0.06", "unit": "nM"}, {"measurement": "binding result", "setting": "RsAgo delP45-W63", "value": "binds"}]}
